Data taken from publication PMC4995487, “Tyrosine phosphorylation and protein degradation control the transcriptional activity of WRKY involved in benzylisoquinoline alkaloid biosynthesis”.

Target: GST-CjWRKY1 WT (Coptis japonica, UniProt A0ZT25 1-185)
Assay: EMSA; 0.05 ug/ul poly(dI-dC), 1 mM MgCl2; EMSA: 20 fmol biotin probe, 3 ug protein, 1x LightShift binding buffer, 1 mM MgCl2, 0.5 mM EDTA, 0.05 ug/ul poly(dI-dC), 20 min at 4 C, 5% polyacrylamide gel; pH and salt not given
Conditions: protein: recombinant; tags: N-terminal GST (pGEX-6P-1); label: biotin; blunt

Chain of GST-CjWRKY1 WT (A0ZT25 entry or part of it): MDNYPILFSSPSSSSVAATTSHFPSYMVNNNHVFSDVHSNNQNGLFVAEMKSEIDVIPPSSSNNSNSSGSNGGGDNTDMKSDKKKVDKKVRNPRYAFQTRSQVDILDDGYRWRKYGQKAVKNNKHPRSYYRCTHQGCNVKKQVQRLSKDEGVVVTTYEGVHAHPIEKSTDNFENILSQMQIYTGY

B1: 3x W-box probe (CYP80B2 promoter) (dsDNA)
DNA 1: CTGCTGACTAGCTGACTAGCTGACTAGATGG
DNA 2: CCATCTAGTCAGCTAGTCAGCTAGTCAGCAG
binding result: binds
